Measurements reported in the nanobody polyreactivity screen of Harvey et al. (2022).

Experiment: yeast display, Sf9 membrane polyspecificity reagent, FACS + sequencing; frameworks hold sequencing errors
In short: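 Polyreactivity labels are assigned by the sorting gate from which each nanobody was recovered. The gates were low and high (top ~1%), set on anti-HA fluorescence for expression and streptavidin fluorescence for reagent binding. Before sorting, galactose-induced (36–48 hours) yeast display cells were stained for 1 hour at 4 °C with 10% biotinylated, detergent-solubilized Sf9 membrane reagent.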

QVQLVESGGGLVQAGGSLRLSCAASGLTFALYAMGWYRQAPGQERELVAAIDWSGGITYYADSVKGRFTISRDHAKNTVYLQMNSLKPEDTAVYYCAARPSTFKYKYGYWGQGTQVTVSS
polyreactivity (PSR sort gate): high polyreactivity

QVQLVESGGGLVQAGGSLRLSCAASGNIFAYYALGWYRQAPGKEREFVAAIRSSGVSTYYADSVKGRFTISRDNAKNTVYLQMNSLKPEDTAVYYCAADSITGGWLIVSPPYNYTYDYWGQGTQVTVSS
polyreactivity (PSR sort gate): low polyreactivity

QVQLVESGGGLVQAGGSLRLSCAASGLTFHYYAMGWYRQAPGKERELVAAITATYYADSVKGRFTISRDNAKNTVYLQMNSLKPEDTAVYYCNAFLYPKQPLSPPDPTFEGGYWGQGTQVTVSS
polyreactivity (PSR sort gate): low polyreactivity

QVQLVESGGGLVQAGGSLRLSCAASGSIYPNGLGWYRQAPGKERELVATITSGGSTYYADSVKGRFTISRDNAKNTVYLPMHSQKPEDTAVYYCAATVYGGYSGSGSNYWGQGTQVTVSS
polyreactivity (PSR sort gate): low polyreactivity

QVQLVESGGGLVQAGGSLRLSCAASGRTFFLYAMGWYRQAPGKESEFVATISYGGGSTYYADSVKGRFTISRDNAKNTVYLQMNSLKPEDTAVYYCNALNTSQYAEGTSDYDGNMGNWGQCTQVTVSS
polyreactivity (PSR sort gate): low polyreactivity

QVQLVESGGGLVQAGGSLRLSCAASGFIFRRYAMGWYRPAPGKVWELVAAITLRGGSTYYADSVKGRFTISRDNAKNTVYLQMNSLKPEATAVYYCAAGVRGQHDGYYWGQGTQETVSS
polyreactivity (PSR sort gate): high polyreactivity

QVQLVESGGGLVQAGGSHRISCAASGSTFPGYPMGWYRQAPGKERELVAAGGSTYYADSVKGRFTISRDNAKNTVYLQINSLKPEDTAVYYCAATWGSVQKGTYYYWGQGTQVTVSS
polyreactivity (PSR sort gate): low polyreactivity

QVQLVESGGGLVQAGGSLRLTCAASGSIFGYAMGWYRQEPGKERELVAAISFSGVSTYYADSVKGRFTISRDNAKNTVYLLMNSLKPEDTAVYDCNAYSDGDEDYWGQGTQVTVSS
polyreactivity (PSR sort gate): low polyreactivity

QVQLEESGGGLVQAGGSLRLSCAASGRTLKVYAMGWYRTAPGKERELVAAINNGGSTNYADSVKGRFTISRDNAKNTVFLQMNSLKPEDTAVYYFNAVYYARFRKYTYYYWGQGTQVTVSS
polyreactivity (PSR sort gate): high polyreactivity

QVQLVESGGGLVQAGGSLRLSCAASGFTFDHNDMGWYRQAPGKEMELVAAITWSAGSTYYADSVKGRFTISRDNAKNTVYLEMNSLKPEDTAVYYCAADAWYYSIYRGGDYWGQGTQVTVSS
polyreactivity (PSR sort gate): low polyreactivity

QVQLVESGGGLVQAGGSLRLSCAASGFTFYWYAMGWYRQAPGKEREFVAAIDQSGGSTYYADSVKGRFTISRDNAKNTVYLQMNSLKPEDTAVYYCAKLYTIGYDYWGQGTQVTVSS
polyreactivity (PSR sort gate): low polyreactivity

QVQLVESGGGLVQAGGSLRLSCAASGSIFSVNTKGWYRQAPGKERELVATIRTGDSTNYADSVKGLFTISRDNAKNTVYLQMNSLKPEDTAFYYCAAEWSSLNFDYWGQGTQVTVSS
polyreactivity (PSR sort gate): low polyreactivity

QVQIVESGGGLVQAGGILRLSCAASGRIFWRNAMGWYRQAPGKEREFVAAITYTAGRTYYADSVKGRFTISRDNSKITVYLQMNSLKPEDTAVYYCAAGSRRPGGTGYDHWVQGTQVTVSS
polyreactivity (PSR sort gate): low polyreactivity

QVQLVESGAGLVQAGGSLRLSCAASGSIFVYNDMGWYRQAPGKERELVAAITSSGGSTYYADSVKGRFTISRDNAKKTVYLQMNSLKPEDTAVYYCNVWDRPPTGYDYWGQGTQVTVSS
polyreactivity (PSR sort gate): low polyreactivity

QVQLVESGGGLVQAGGSLRLSCAASGGTFPPNTMGWSRQAPGKEREFVAASTWRGSSTYYADSVKGRFTISRDKAKNTVYLQMNSLKPEDTAVYYCAARRAYERMGYWGQGTQVTVSS
polyreactivity (PSR sort gate): high polyreactivity

QVQLVESGGGLVQAGGSLRLSCAASGSTLPRYAMGWYRQAPGKEREFVAAMTWRGGSTYYADSVKGRFTISRDNAKNTVYLQMNSLKPEDTAVYYCNTHRNGGSHRRYNYWGQGTQVTVSS
polyreactivity (PSR sort gate): high polyreactivity

QVQLVESGGGLVQAGGSLRLSCAATGRTLVLYAMGWYRQAPGKERELVAAITWSGDSTYYADSVKGRFSISRDNAKYTVYLQMKSLKPEDTAVYYCAATYLNAKRGLRYDYWGQGTQVSVSS
polyreactivity (PSR sort gate): low polyreactivity

QVQLVESGVGLVNAGGSLRLSCAASGYIFSPNVMGWYRQAPGKERELVAAITRGGGTYYADSVKGRFTISRDNAKNTVYLHLNSLKPEDTAVYYCNEDYTLSVYGTTYCYNYWGQGTQVTVSS
polyreactivity (PSR sort gate): high polyreactivity

QVQLVESAGGIVQAGGSLRLSCAASGSTFGVYAMGLYRQAPGKERELVASISSGDSTTYADSVKGRFTISRDNAKNTVYFQMNSLKPDVTAVYYCNAVYYTGYYWGHGTQVTVSS
polyreactivity (PSR sort gate): low polyreactivity

QVQLVESGGGLVQARGSLRLSCAASGSTVGYNAMGWYRQAPGKERELVAAISGNGGSTYADSVKGRFTISRDNAKNTVYLQMNSLKPEDTAVYYCAAVQYGYGLASDSIFDYWGQGTQVTVSS
polyreactivity (PSR sort gate): high polyreactivity

QVQLVESGGGLVQAGGSLRLSCAASGRTFGANAMGWYRQAPGKERELVAAISSSDDSTYYADSVKGRFTISRDNAKNTVYLQMNSLKPEDTAVYYCAAEDVYPQLDYWGQGTQVTVSS
polyreactivity (PSR sort gate): low polyreactivity

QVQLVESGGGIVQAGGSLRLSCAASGSTFNANGMGWYRQAPGKERELVAAISWRGSTYYADSVKGRFTISRDNAKNTVYLQMNSLKPEDTAVYYCAAYRYSWSYQYRYGYWGQGTQVTVSS
polyreactivity (PSR sort gate): high polyreactivity

QVQLVESGGGLVQAGGSLRLSCAASGSIFGYVMGWSRQAPGKERELVAAISSGGSTDYADSVKGRFTISRDNAKNTVYLQMNSLKPEDTAVYYCAADTDNGYTYYYWGQGTQVTVSS
polyreactivity (PSR sort gate): low polyreactivity

QVQLVESGGGLVQAGGSLRLSCAASGFIFYYYAMGWYRQAPGKERELVAAITQGGGSTYYADSVKGRFTISRDNAKNTVFLQMNSLKPEDTAVYYCAAVKRVYAHSRAFSSDFYYWGQGTQVTVSS
polyreactivity (PSR sort gate): high polyreactivity

QVQLVESGGGLVQAGGSLLLSCAASGSIFFYAMGSYRQAPGKERELVADITYTGGSKYADSVKGRFTISRDNAKNTVYLQMNSLKPEDTAVYYCAKLDGGLFDYWGQGTQVTVSS
polyreactivity (PSR sort gate): low polyreactivity

QVQLVESGGGLVQAGGSLRLSCSASGSTFRVYAMGWYRQAPGKERELVAAISWSGGRTYYADSVKGRFTISRDNAKNTVYLQMNSLKPEDTAVYYCAADTYGRYDYWGQGTQVTVSS
polyreactivity (PSR sort gate): high polyreactivity

QVQLVESGGGLVQAGGSLRITCAASGSIFYSNVMGWSRPAPGKERELVARITDAGSTNYADSVKGRFTISRDYAKNTVYLQMYSLKPEDTAVYYCIARLVIYTYDYWGQGTQVTVSS
polyreactivity (PSR sort gate): low polyreactivity

QVQLVESGGGVVQAGGSLRLSCAASGFTFARYTMGWYRPAPGKERELVAAISSRGSSTYYADSVKGRFTISRDNAKNTVYLQMNSLKPEDTAVYYCAKAYYTPYGVYVLHYYWGQGTQVTVSS
polyreactivity (PSR sort gate): high polyreactivity

QVQLQESGGGLLQAGGCLSCTASGTILVQGDMGWYRHAPGKERELVATINDGASTYYADSVKGRFTISRDKAKNTVYLQKNSLKPDDTAVYYCAVFTDITTYFGYWGQGTQVTVSS
polyreactivity (PSR sort gate): low polyreactivity

QVQLVESGGGLVQAGGSLRLSCAASGFIFGDYAMGWYRQAPGKERELVAAINRGASTYYADSVKGSFTISRDNPKNTVYLQMNSLTPEDTAVYYCAAAGNSRGGRGGYWGQGTQVSVSS
polyreactivity (PSR sort gate): high polyreactivity

QVQLVESGGGLVQAGGSLRLSCAASGITFVSYTMGWYRQAPGKERELVAAISTSGGSTYYADSVKGRFTISRDNAKNTVYLQMNSLKPEDTAVYYCAARQVRTIRKYGYWGQGTQVTVSS
polyreactivity (PSR sort gate): high polyreactivity

QVQLVESGGGLFQAGGSLRLSSAASGSIFHPYAMGWYRQAPGKERELVAAISSSTGRTYYADYVKGRFTISRDNAKNTVYLQMNSLKPEDTAVYYCAARKKYSEFDYWGQGTQVTVSS
polyreactivity (PSR sort gate): high polyreactivity

QVQLVESGGGLVQAGGSLRLSCAASGSIFPSNAMGWYRQAPGKERELVAAINRDGITNYADSVKGRFTISRDNAKNTVYLQMNSLKPEDTAVYYCNAYNYDFYASFWYEVDYWGLGTQVTVSS
polyreactivity (PSR sort gate): low polyreactivity

QVQLVESGGGLVQAGGSLRLSCAASGSTFRRYAMGWYRQAPGKERELVAAISWSGGSTYYADSVKGRFTISRDNAKNTVYLQMNSLKPEDTAVYYCAARGVTSYWQDYDYWGQGTQVTVSS
polyreactivity (PSR sort gate): low polyreactivity

QVQLVESGAGLVQAGGSLRLSCAPSGRTFGYNAMGWYRQAPGKERELVATISSSTVSTSYADSVKGRFTISRDNAKNTVYLQMNSLKPEDTAVYYCNARSRVSPTERVPYDSWGHGTQVTVSS
polyreactivity (PSR sort gate): low polyreactivity

QVQLVESGGCLVQAGGSLRLSCAASGSIITWNAMVWYRQAPGKERELVAAIDWDGGSTYYADSVKGRFTISRDNAKNTVYLQMHILKPEDTAVYYCAATYGWYTVRYPSGHYYYWGQGTQVTVSS
polyreactivity (PSR sort gate): low polyreactivity

QVQLVESGGGLVQAGGSLRLSCAASGSTFYYYSMGWYRQAPGKERELVASISDDGSTNYADSVKGRFTISRDNAKNTVYLQMNSLKPEDTAVYYCAAVWWHQFGSAWYQMGYWGQGTQVTVSS
polyreactivity (PSR sort gate): low polyreactivity

QVQLQESGGDLVQAGGSLRLSCAASGTIYGLTSMGSYRQRPGKEREFVAAITDGGNTNYADSVKGRFTISRDNAKNTVYLQMISLKPDETAVYYWAVLFSDDAYYAYWGQGTQVTVSS
polyreactivity (PSR sort gate): low polyreactivity

QVQLVESGGGLVQAGGSLRLSCDASGRIFYFYAMGWYRQAPGKESELVAAISTSGGSTYYADSVKGRFTISRDNAKNTVYLQMNSLKPEDTAVYYCAARYRYYGSEYDYWGQGTQVTVSS
polyreactivity (PSR sort gate): low polyreactivity

QVQLQESGGGLVQAGGSQRLTCAASGYIFYFQYMGWYRPAPGKEREFVAAISDGANTNYADSVKGRFTISRDNAKNTEYLQMNSLKPEDTAVYYCSVYADENYYYIYWGQGTQVTVSS
polyreactivity (PSR sort gate): low polyreactivity

QVQLVESGGGLVQAGGSLRLSCAASGSIFGSYAMGWYRQAPGKARELVAAISQSGSSTYYADSVKGRFTISRDNAKNTVSLQMNSLKPEDTAVYYCAADWRHLRYRGGLQYDYWGQGTQVTVSS
polyreactivity (PSR sort gate): high polyreactivity

QVQLVDSGGGLVQAGGSLRLSCAASGRTSYYNTMGWYRQAPGKERELVAAITGRGDSTYYADSVKGRFTISRDNAKNTVYLQMNSLKPEDTAVYYCAADELHLLYRVSKFVDYNHWGQGTQVTVSS
polyreactivity (PSR sort gate): low polyreactivity

QVQLVESGGGLVQAGGSLRLSCAASGSTFYYNAMRWYRQAPGKERELVAAITGSGDSTYYADSVKGRFTISRDNAKNTVYLQMNSLKPEDTAVYYCAADTYSTYWGQGTQVTVSS
polyreactivity (PSR sort gate): low polyreactivity
